Experimental data published in publication PMC9342783.

Columns and labels:
[1] = biological target: membrane translocated mature FopA (Francisella tularensis outer membrane protein A) with C-terminal octa-histidine tag (F. tularensis subsp. tularensis strain SCHU S4); experiment: native gel or EMSA
[2] = biological target: membrane translocated mature FopA (Francisella tularensis outer membrane protein A) with C-terminal octa-histidine tag (F. tularensis subsp. tularensis strain SCHU S4); experiment: small angle X-ray scattering (SEC-SAXS)

membrane translocated mature FopA (Francisella tularensis outer membrane protein A) with C-terminal octa-histidine tag (natural protein)
stoichiometry N [1]: 2 | stoichiometry N [2]: 2
